Measured values taken from patent US20230028050A1 (JUNO THERAPEUTICS, published 2023).

T1: soluble monomeric BCMA-human Fc fusion protein (UniProt Q02223 1-54, limits assumed)
T1 construct: also called Monomeric BCMA-Fc; not shown: human Fc
T1 sequence (looked up): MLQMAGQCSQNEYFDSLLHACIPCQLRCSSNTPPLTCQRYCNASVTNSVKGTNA

T2: soluble dimeric BCMA-human Fc fusion protein (UniProt Q02223 1-54, limits assumed)
T2 construct: also called Dimeric BCMA-Fc; not shown: human Fc
T2 sequence (looked up): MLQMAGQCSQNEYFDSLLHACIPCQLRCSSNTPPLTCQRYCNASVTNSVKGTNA

T3: recombinant BCMA-Fc (soluble human BCMA fused at its C-terminus to an Fc region of IgG) fusion polypeptide (human, UniProt Q02223 1-54)
T3 construct: Used as a staining control; also called recombinant BCMA-Fc fusion polypeptide; not shown: Fc region of IgG
T3 sequence (looked up): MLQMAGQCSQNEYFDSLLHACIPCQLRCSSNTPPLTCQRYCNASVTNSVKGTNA

B1: soluble monomeric scFv-Fc fusion protein (scFv from anti-BCMA CAR 2) (Fc fusion)
chain: QSALTQPASVSASPGQSIAISCTGTSSDVGWYQQHPGKAPKLMIYEDSKRPSGVSNRFSGSKSGNTASLTISGLQAEDEADYYCSSNTRSSTLVFGGGTKLTVLGSRGGGGSGGGGSGGGGSLEMAEVQLVQSGAEMKKPGASLKLSCKASGYTFIDYYVYWMRQAPGQGLESMGWINPNSGGTNYAQKFQGRVTMTRDTSISTAYMELSRLRSDDTAMYYCARSQRDGYMDYWGQGTLVTVSS
notes: not shown: Fc
B2: soluble dimeric scFv-Fc fusion protein (scFv from anti-BCMA CAR 2) (Fc fusion)
chain: QSALTQPASVSASPGQSIAISCTGTSSDVGWYQQHPGKAPKLMIYEDSKRPSGVSNRFSGSKSGNTASLTISGLQAEDEADYYCSSNTRSSTLVFGGGTKLTVLGSRGGGGSGGGGSGGGGSLEMAEVQLVQSGAEMKKPGASLKLSCKASGYTFIDYYVYWMRQAPGQGLESMGWINPNSGGTNYAQKFQGRVTMTRDTSISTAYMELSRLRSDDTAMYYCARSQRDGYMDYWGQGTLVTVSS
notes: not shown: Fc
B3: anti-BCMA CAR 1 (chimeric antigen receptor with the scFv of anti-BCMA Target Antibody 1) (receptor)
chain: SYELTQPPSASGTPGQRVTMSCSGTSSNIGSHSVNWYQQLPGTAPKLLIYTNNQRPSGVPDRFSGSKSGTSASLAISGLQSEDEADYYCAAWDGSLNGLVFGGGTKLTVLGSRGGGGSGGGGSGGGGSLEMAEVQLVQSGAEVKKPGESLKISCKGSGYSFTSYWIGWVRQMPGKGLEWMGIIYPGDSDTRYSPSFQGHVTISADKSISTAYLQWSSLKASDTAMYYCARYSGSFDNWGQGTLVTVSS
notes: Whole receptor expressed on Jurkat T cells; not shown: human IgG-derived spacer, human CD28-derived transmembrane domain, human 4-1BB-derived intracellular signaling domain an

How the values were obtained:
[1] = biological target: T1, soluble monomeric BCMA-human Fc fusion …; test: SPR, BIAcore T200, against monomeric scFv-Fc
Protocol: (§1) Off rates and equilibrium dissociation constants were determined against a soluble monomeric scFv-Fc fusion protein as well as against a soluble dimeric scFv-Fc fusion protein. For comparison, the kinetics and affinity of soluble monomeric and dimeric BCMA-human Fc fusion proteins were also assessed against the monomeric and dimeric scFv-Fc fusion proteins, respectively. Off rates and equilibrium dissociation constants were determined using a BIAcore T200 instrument.

[2] = biological target: T2, soluble dimeric BCMA-human Fc fusion …; test: SPR, BIAcore T200, against dimeric scFv-Fc
Protocol: as §1

[3] = biological target: B1; test: SPR, BIAcore T200, against monomeric scFv-Fc
Protocol: as §1

[4] = biological target: B3; test: flow cytometry; Jurkat T cells expressing anti-BCMA CAR 1, 2.5 µg/mL anti-ID conjugated to Alexa Fluor 647, 20 min at 4 °C
[5] = biological target: B2; test: SPR, BIAcore T200, against dimeric scFv-Fc
Protocol: as §1

[6] = biological target: T3, recombinant BCMA-Fc (soluble human BCMA …); test: flow cytometry; Jurkat T cells expressing anti-BCMA CAR 1, staining with recombinant BCMA-Fc as control
[7] = biological target: T4, anti-BCMA CAR 2 (chimeric antigen receptor with the scFv of anti-BCMA Target Antibody 2); test: flow cytometry; Jurkat T cells expressing anti-BCMA CAR 2, 5 µg/mL purified anti-ID, goat anti-mouse IgG secondary antibody; parental Jurkat cells as negative
T4 construct: Whole receptor expressed on Jurkat T cells, Nur77-tdTomato reporter cells or primary human T cells; not shown: human IgG2 and IgG4-derived spacer, human CD28-derived transmembrane domain, human 4-1BB-derived intracellular signaling

[8] = biological target: B3; test: flow cytometry; Jurkat T cells expressing anti-BCMA CAR 1, anti-ID conjugated to Alexa Fluor 647

Kd [3] [nM]	koff [3] [s⁻¹]	Kd [5] [nM]	koff [5] [s⁻¹]	other results	Binder
–	–	–	–	Kd [1]: 290 nM; koff [1]: 0.024 s⁻¹	B1
–	–	–	–	Kd [2]: 7 nM; koff [2]: 0.00014 s⁻¹	B2
18	0.0036	2.2	4.4e-05	binding result [4]: binds	anti-idiotype antibody clone 15 (antibody, mouse IgG1, kappa, V domains shown, Mouse hybridoma antibody, purified; also called anti-ID clone 15) VH: QVQLQQSGAELVKPGASVKISCKASGYAFSSYWMNWVKQRPGKGLEWIGQIYPGNGETNNNGKFKGKATLTADISSSTAYMQLSSLTSEDSAVYFCARGGWYFDVWGTGTTVTVSS VL: DIQMTQSPASLSASVGETVTITCRASENIYSYLAWYQQKQGKSPHLLVYNAYTLAEGVPSRFSGSGSDTQFSLKINSLQPEDFGNYYCQHHYGTPWTFGGGTKVEIKR
55	0.0081	3.6	6.2e-05	–	anti-idiotype antibody clone 19 (antibody, mouse IgG2b, kappa, V domains shown, Mouse hybridoma antibody, purified; also called anti-ID clone 19) VH: QVQLQQSGAELMKPGASVKLSCKATGYTFTAYWIEWVKQRPGHGLEWIGEILPGSGITKYSEKFKGKATFTADTSSNTAYMQLSSLTTEDSAIYYCARDYYSDNYWGQGTSVTVSS VL: not shown
–	–	–	–	binding result [6]: binds	B3
–	–	–	–	binding result [7]: binds	anti-idiotype antibody clone 10 (antibody, mouse IgG1, kappa, V domains shown, Mouse hybridoma antibody raised against the anti-BCMA CAR 1 scFv fused to mouse Fc and purified; Detected with a goat anti-mouse IgG secondary antibody; also called anti-ID clone 10) VH: EVKLLESGGGLVQPGGSLKLSCAASGFDFSRYWMSWVRQAPGKGLEWIGEINPDSSTINYTPSLKDKFIISRDNAKNTLYLQMSKVRSEDTALYYCARHGYYWYFDVWGAGTTVTVSS VL: DIQMTQTTSSLSASLGDRVTISCRASQDISNYLNWYQQKPDGTVKLLIYYTSRLHSGVPSRFSGSGSGTDYSLTISNLEQEDIATYFCQQGNTLPYTFGGGTKLEIKR
12	0.005	2.6	0.00014	binding result [8]: no binding (tested: 2.5 µg/mL)	anti-idiotype antibody clone 16 (antibody, mouse IgG1, kappa, V domains shown, Mouse hybridoma antibody, purified; also called anti-ID clone 16) VH: QVQLQQSGPELVKPGASVKISCKASGYTFTDFYINWVKQRPGQGLEWIGWIFPRSGSTYYNEKFKGKATLSVDKSSITAYMLLSSLTSEDSAVYFCARGDGYSGAMDYWGQGTSVTVSS VL: DIQMTQTTSSLSASLGDRVTISCSASQGIRNYLNWYQQKPDGTVKLLIYYTSNLHSGVPSRFSGSGSGTDYSLTISNLEPEDIATYYCQQYNNLPRTFGGGTKLEIKR
